Data on four substances can be found in patent publication US20170247677A1.

One data set concerns the target Factor Va (UniProt P12259).
Another data set has as its target FXa^V17T (human) (UniProt P00742). The data set is described as follows: cell-based or functional assay.
Data set [1] concerns the target wild-type Factor Xa (human) (UniProt P00742). Briefly: cell-based or functional assay.
The target of a further data set is FXa^V17S (human) (UniProt P00742). Briefly: cell-based or functional assay.
The target in a further data set is FXa^I16M (human) (UniProt P00742). The data set is described as follows: cell-based or functional assay.
The target of another data set is FXa^V17M (human) (UniProt P00742). The data set is described as follows: cell-based or functional assay.
A further data set concerns the target FXa^I16T (human) (UniProt P00742). The data set is described as follows: cell-based or functional assay.

UniProt P12259, sequence (P12259 29-2224): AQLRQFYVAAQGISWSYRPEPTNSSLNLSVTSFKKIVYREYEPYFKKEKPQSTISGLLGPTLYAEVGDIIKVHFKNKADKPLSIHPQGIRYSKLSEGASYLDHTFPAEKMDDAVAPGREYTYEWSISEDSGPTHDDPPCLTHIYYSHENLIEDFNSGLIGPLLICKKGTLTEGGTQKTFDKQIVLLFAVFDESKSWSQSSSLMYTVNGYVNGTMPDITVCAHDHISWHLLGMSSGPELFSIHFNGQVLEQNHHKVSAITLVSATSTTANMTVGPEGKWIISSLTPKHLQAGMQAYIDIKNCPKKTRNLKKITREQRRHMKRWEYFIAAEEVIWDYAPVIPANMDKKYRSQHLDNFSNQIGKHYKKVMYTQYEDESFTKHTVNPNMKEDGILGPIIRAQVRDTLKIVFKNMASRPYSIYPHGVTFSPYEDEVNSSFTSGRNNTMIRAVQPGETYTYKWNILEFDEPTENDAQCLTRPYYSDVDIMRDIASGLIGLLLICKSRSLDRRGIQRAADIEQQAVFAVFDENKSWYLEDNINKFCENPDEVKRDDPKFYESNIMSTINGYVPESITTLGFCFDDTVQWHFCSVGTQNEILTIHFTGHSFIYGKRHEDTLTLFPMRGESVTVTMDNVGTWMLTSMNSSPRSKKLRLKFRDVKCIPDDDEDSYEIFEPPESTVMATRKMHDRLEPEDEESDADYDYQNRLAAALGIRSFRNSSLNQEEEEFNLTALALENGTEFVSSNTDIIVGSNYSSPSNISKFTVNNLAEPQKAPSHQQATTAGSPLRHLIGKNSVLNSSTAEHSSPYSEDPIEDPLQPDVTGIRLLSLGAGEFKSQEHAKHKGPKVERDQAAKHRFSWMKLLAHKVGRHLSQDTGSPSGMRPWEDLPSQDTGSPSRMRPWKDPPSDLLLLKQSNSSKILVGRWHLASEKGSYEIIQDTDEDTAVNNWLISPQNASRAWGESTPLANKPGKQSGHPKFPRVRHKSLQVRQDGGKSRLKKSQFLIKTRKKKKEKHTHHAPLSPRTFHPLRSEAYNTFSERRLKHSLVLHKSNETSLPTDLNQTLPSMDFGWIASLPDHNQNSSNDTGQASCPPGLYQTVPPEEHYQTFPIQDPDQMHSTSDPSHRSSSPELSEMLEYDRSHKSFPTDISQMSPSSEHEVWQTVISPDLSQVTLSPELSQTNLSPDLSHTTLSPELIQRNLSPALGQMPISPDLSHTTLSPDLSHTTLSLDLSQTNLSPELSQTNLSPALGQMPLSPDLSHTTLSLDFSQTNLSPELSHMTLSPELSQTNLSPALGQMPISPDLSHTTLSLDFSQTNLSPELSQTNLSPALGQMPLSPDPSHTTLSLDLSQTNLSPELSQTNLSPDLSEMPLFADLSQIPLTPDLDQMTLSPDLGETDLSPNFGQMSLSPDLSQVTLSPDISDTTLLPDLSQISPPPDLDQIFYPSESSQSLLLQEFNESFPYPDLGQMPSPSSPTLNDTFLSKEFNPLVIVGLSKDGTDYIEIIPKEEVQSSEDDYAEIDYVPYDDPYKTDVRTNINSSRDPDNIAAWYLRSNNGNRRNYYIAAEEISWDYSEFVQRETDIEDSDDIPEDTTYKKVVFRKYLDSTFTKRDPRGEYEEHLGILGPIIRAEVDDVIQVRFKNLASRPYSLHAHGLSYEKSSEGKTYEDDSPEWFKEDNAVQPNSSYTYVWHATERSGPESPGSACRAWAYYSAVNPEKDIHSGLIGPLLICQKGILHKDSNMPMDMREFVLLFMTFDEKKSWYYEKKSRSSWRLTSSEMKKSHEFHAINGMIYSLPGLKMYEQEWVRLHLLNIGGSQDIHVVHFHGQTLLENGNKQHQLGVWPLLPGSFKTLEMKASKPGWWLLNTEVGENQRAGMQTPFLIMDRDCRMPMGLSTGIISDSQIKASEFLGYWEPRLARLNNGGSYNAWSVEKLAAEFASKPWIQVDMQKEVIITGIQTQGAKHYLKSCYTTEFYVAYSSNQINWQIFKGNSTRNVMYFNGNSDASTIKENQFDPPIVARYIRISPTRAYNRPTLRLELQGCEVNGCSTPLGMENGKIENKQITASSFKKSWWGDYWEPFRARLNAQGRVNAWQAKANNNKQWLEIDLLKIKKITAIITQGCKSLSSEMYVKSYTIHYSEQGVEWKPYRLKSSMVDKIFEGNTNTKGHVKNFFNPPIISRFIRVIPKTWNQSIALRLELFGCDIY

Consider FXa^V17M, for which the “kinetics of prothrombin activation in the presence of FVa and anionic membranes (PCPS)” value with Factor Va is “demonstrated faster than wild-type kinetics”.
Turning to FXa^I16L, the “kinetics of prothrombin activation in the presence of FVa and anionic membranes (PCPS)” value with Factor Va is “demonstrated faster than wild-type kinetics”.
The same measure, in the same setting: the entry for FXa^I16M is “displayed similar to wild-type kinetics”.
As to “antithrombin III (from UniProt P01008 33-464)”, the Fold Difference (rate constant for inhibition by antithrombin, against wtFXa) in the data set with FXa^V17T (human) is 70 fold; in data set [1], 1 fold; with FXa^V17S (human), > 100 fold; in the data set with FXa^I16M (human), 40 fold; in the data set with FXa^V17M (human) it was 14 fold; in the data set with FXa^I16T (human) it was > 100 fold.
